The data set concerns Foxi1 (FOXI1). Description: competition EMSA. The conditions noted are these: unlabeled wt competitor; 5 mM HEPES pH 7.9, 100 mM KCl, 26% glycerol, 1.5 mM MgCl2, 0.2 mM EDTA, 0.5 mM DTT, 0.5 mM PMSF, 500 ng poly dI:dC, room temperature 15 min; 6% native gel …; scale: fold molar excess for effective competition. Background: In EMSA bound probe runs differently from free probe, usually more slowly.

ATP6V0A4 Fk1-3 wt (-561/-547) yielded a competitor fold molar excess for effective competition of 10.

The record behind these values is article PMC2637605.
